In patent publication US20230089620A1 (JIANGSU HENGRUI PHARMACEUTICALS, published 2023):
One block for each binder: values may come before it.

How the values were obtained:
[1] = molecular target: T1, IL-2-His (CX66, Novoprotein) (UniProt P60568 21-153); assay: Octet: reading at 230 s of IL-2-His (100 nM) + antibody (500 nM) on biotin-IL-2Rα-Fc sensor; lower = stronger blocking
T1 construct: Bought reagent; not shown: His tag
Description: A Streptavidin biosensor (Fortebio, #18-5020) was immersed in 200 μL of KB buffer (PBS, pH 7.4, 0.05% tween-20, 0.1% BSA) for 60 s for the wetting treatment. Then, biotinylated IL-2Rα-Fc (CJ78, Novoprotein) was diluted to 10 μg/mL with the KB buffer, and the sensor was immersed in 200 μL of the solution for 150 s. The sensor was immersed in the KB buffer for 60 s to elute excess IL-2Rα. […] The sensor was immersed in the mixture for 300 s for association. […] The values at 230 s after the beginning of the binding were read.

[2] = molecular target: T2, biotin-labeled IL-2 with a human Fc-tag (Sanyou Biopharmaceutical, GenBank Accession No: P60568-1) (UniProt P60568 21-153, biotin-labeled (site not stated)); assay: competition ELISA: antibody titrated, pre-incubated with biotin-IL-2-Fc (1 µg/mL); competitor coated IL-2Rα-Fc
T2 construct: Bought reagent; also called biotinylated IL-2-Fc; not shown: human Fc-tag
Description: (§1) IL-2Rα-Fc (CJ78, Novoprotein) (Accession #NP_000408) was diluted to 0.5 μg/mL with PBS and added at 30 μL/well to coat an ELISA plate, and the plate was incubated overnight at 4° C. The plate was washed with PBST 3 times. The plate was blocked with 1% BSA for 1 h at room temperature and washed with PBST 3 times. […] The plate was incubated at room temperature for 1 h, and washed with PBST 3 times. 30 μL of secondary antibody NeutrAvidin-HRP diluted in a 1:6000 ratio was added, and the plate was incubated at room temperature for 1 h and washed with PBST 9 times. 30 μL of TMB was added for color developing for 5-10 min at room temperature, then 30 μL of 2 M HCl or H₂SO₄ was added to terminate the reaction. The plate was read for data by a microplate reader at OD 450.

[3] = molecular target: T2, biotin-labeled IL-2 with a human Fc-tag …; assay: ELISA, antibody titrated and captured by anti-human IgG, biotin-IL-2-Fc 2 µg/mL
Description: Anti-human IgG (STAR161, Bio-rad) was diluted to 2 μg/mL with PBS and added at 30 μL/well to coat an ELISA plate, and the plate was incubated overnight at 4° C. The plate was washed with PBST 3 times. The plate was blocked with 1% BSA for 1 h at room temperature and washed with PBST 3 times. […] 30 μL of the antibody solution was added to an ELISA plate, and the plate was incubated at room temperature for 1 h and washed with PBST 3 times. […] The plate was incubated at room temperature for 1 h and washed with PBST 3 times. 30 μL of secondary antibody NeutrAvidin-HRP diluted in a 1:6000 ratio was added. The plate was incubated at room temperature for 1 h and washed with PBST 9 times. 30 μL of TMB was added for color developing for 5-10 min at room temperature, then 30 μL of 2M HCl or H₂SO₄ was added to terminate the reaction. The plate was read for data by a microplate reader at OD 450.

IL-2 (C013, Novoprotein) = IL-2 (C013, Novoprotein) (UniProt P60568 21-153); assay: SPR (Biacore T200), antibody captured on Protein A chip, IL-2 analyte, 1:1 model
Description: The solutions flowed at a flow rate of 30 μL/min for dissociation for 300 s. The reaction signals were detected in real time to obtain association and dissociation curves. After the dissociation was completed for each assay cycle, the chip was washed and regenerated with 10 mM Gly-HCl, pH 2.0.

[4] = molecular target: T2, biotin-labeled IL-2 with a human Fc-tag …; assay: competition ELISA: antibody titrated, pre-incubated with biotin-IL-2-Fc (5 µg/mL); competitor coated IL-2Rβ-Fc
Description: as §1, with “IL-2Rβ-Fc (CJ82,” for “IL-2Rα-Fc (CJ78,”, “Novoprotein)” for “Novoprotein) (Accession #NP_000408)”, “8” for “0.5”

[5] = molecular target: T2, biotin-labeled IL-2 with a human Fc-tag …; assay: Octet: biotin-IL-2-Fc sensor loaded with antibody (500 nM), reading at 230 s of IL-2Rβ-Fc (8000 nM) binding; lower = stronger blocking
Description: A Streptavidin biosensor (Fortebio, #18-5020) was immersed in 200 μL of KB buffer (PBS, pH 7.4, 0.05% tween-20, 0.1% BSA) for 60 s for the wetting treatment. […] The IL-2Rβ-Fc (CJ82, Novoprotein) was diluted to a final concentration of 8000 nM with the KB buffer, and the sensor was immersed in the antibody solution for association for 300 s. […] The values at 230 s after the beginning of the binding of IL-2Rβ-Fc were read.

T1 sequence (P60568 21-153 limits assumed): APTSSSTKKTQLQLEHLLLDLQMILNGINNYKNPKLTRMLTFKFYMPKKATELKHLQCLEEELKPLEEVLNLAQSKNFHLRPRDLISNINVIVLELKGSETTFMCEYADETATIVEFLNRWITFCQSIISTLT
Sequence of IL-2 (C013, Novoprotein) (P60568 21-153 limits assumed): as above
T2 sequence (P60568 21-153 limits assumed, one chain of several): as the sequence (P60568 21-153 limits assumed) above

B2: C2-53 full-length fully human anti-IL-2 antibody (antibody, human IgG1, kappa, L234A L235A, V domains shown)
VH: EVQLVESGGGLVQPGRSLILSCAASGFTFDDYAMHWVRQAPGKGLEWVSGISWNSGSIGYADSVKGRFTISRDNAKNSLYLQMNSLRAEDTALYYCAKDQLRWGTYYYYGMDVWGQGTTVTVSS
VL: DIQMTQSPSTLSASVGDRVTITCRASQSVSIWVAWYQQKPGKAPKLLIYKASSLERGVPTRFSGSGSGTEFTLTISSLQPEDFATYHCQQYDTGATFGQGTKVEMKR
notes: Human IgG1 with LALA mutation, kappa light chain
Values for blocking IL-2Rα at an Octet level [1]: 0.41 | IC50 [2]: 0.659 mg/L | EC50 [3]: 0.73 mg/L | Kd (IL-2 (C013, Novoprotein)): 0.000267 µM | koff (IL-2 (C013, Novoprotein)): 0.00437 s⁻¹ | kon (IL-2 (C013, Novoprotein)): 1.64e+07 M⁻¹ s⁻¹ | IC50 [4]: 1.44 mg/L | Values for blocking IL-2Rβ at an Octet level [5]: 0.017

B3: A2-22 full-length fully human anti-IL-2 antibody (antibody, human IgG1, kappa, L234A L235A, V domains shown)
VH: QVQLVQSGAEVKKPGASVKVSCKASGYTFTSYYMHWVRQAPGQGLEWMGIINPSGGSTSYAQKFQGRVTMTRDTSTSTVYMELSSLRSEDTAVYYCAREDWMEYEYYYGMDVWGQGTLVTVSS
VL: EIVLTQSPGTLSLSPGERATLSCRASQSVSNNYLAWYQQKPGQAPRLLIYGASSRATGIPDRFSGSGSGTDFTLTISRLEPEDFAVYSCQQYGSSPLTFGQGTRLEIKR
notes: Human IgG1 with L234A/L235A (LALA), kappa light chain; expressed in HEK293
Values for blocking IL-2Rα at an Octet level [1]: 0.848 | EC50 [3]: 1.29 mg/L | Kd (IL-2 (C013, Novoprotein)): 0.0398 µM | koff (IL-2 (C013, Novoprotein)): 0.0527 s⁻¹ | kon (IL-2 (C013, Novoprotein)): 1.33e+06 M⁻¹ s⁻¹ | IC50 [4]: 2.73 mg/L | Values for blocking IL-2Rβ at an Octet level [5]: 0.042

B5: D2-60 full-length fully human anti-IL-2 antibody (antibody, human IgG1, kappa, L234A L235A, V domains shown)
VH: QVQLVQSGAEVKKPGASVKVSCKASGYTFTSYGISWVRQAPGQGLEWMGWISAYNGNTNYAQKLQGRVTMTTDTSTSTAYMELRSLRSDDTAVYYCAREYSSWYSGGMDVWGQGTTVTVSS
VL: DIQMTQSPSSLSASVGDRVTITCRASQGISNYLAWYQQKPGKVPKLLIYAASTLQSGVPSRFSGSGSGTDFTLTISSLQPEDVATYYCQKYDSAPFTFGQGTRLEIKR
notes: as for B2
Values for blocking IL-2Rα at an Octet level [1]: 0.754 | EC50 [3]: 1.43 mg/L | Kd (IL-2 (C013, Novoprotein)): 0.0128 µM | koff (IL-2 (C013, Novoprotein)): 0.00651 s⁻¹ | kon (IL-2 (C013, Novoprotein)): 509000 M⁻¹ s⁻¹ | IC50 [4]: 8.27 mg/L | Values for blocking IL-2Rβ at an Octet level [5]: 0.086

Second part, the binder after the results:

Values for blocking IL-2Rα at an Octet level [1]: 0.473 | IC50 [2]: 1.2 mg/L | EC50 [3]: 1.21 mg/L | Kd (IL-2 (C013, Novoprotein)): 0.00472 µM | koff (IL-2 (C013, Novoprotein)): 0.0546 s⁻¹ | kon (IL-2 (C013, Novoprotein)): 1.16e+07 M⁻¹ s⁻¹ | IC50 [4]: 2.13 mg/L | Values for blocking IL-2Rβ at an Octet level [5]: 0.027
B1: D3-68 full-length fully human anti-IL-2 antibody (antibody, human IgG1, kappa, L234A L235A, V domains shown)
VH: QVQLVQSGPEVKKPGASVKVSCKASGYTFTSYGISWVRRAPGQGLEWMGWISAYNGNTNYAQKLQGRVTMTTDTSTSTAYMELRSLRSDDTAVYYCARDLQSPTYYYGSGVIDYWGQGTLVTVSS
VL: DIQLTQSPSTLSASVGDRVTISCRASRAVSPWLAWYQHRPGQAPKLLIYAASSLQSGVPSRFSGSGSGTDFTLTISSLQPEDFATYYCQQYRSYPFTFGPGTTVDIRR
notes: as for B2

Values for blocking IL-2Rα at an Octet level [1]: 0.7 | EC50 [3]: 2.12 mg/L | Kd (IL-2 (C013, Novoprotein)): 0.0306 µM | koff (IL-2 (C013, Novoprotein)): 0.0448 s⁻¹ | kon (IL-2 (C013, Novoprotein)): 1.46e+06 M⁻¹ s⁻¹ | IC50 [4]: 3.04 mg/L | Values for blocking IL-2Rβ at an Octet level [5]: 0.056
B4: B2-15 full-length fully human anti-IL-2 antibody (antibody, human IgG1, kappa, L234A L235A, V domains shown)
VH: EVQLLESGAEVKKPGASVKVSCKASGYTFTSYYMHWVRQAPGQGLEWMGIINPSGGSTSYAQKFQGRVTMTRDTSTSTVYMELSSLRSEDTAVYYCAREGNSSGYYNAFDIWGQGTMVTVSS
VL: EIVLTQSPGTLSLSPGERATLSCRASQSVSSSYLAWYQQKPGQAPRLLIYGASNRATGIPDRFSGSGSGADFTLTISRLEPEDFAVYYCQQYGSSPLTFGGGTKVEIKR
notes: as for B2

Values for blocking IL-2Rα at an Octet level [1]: 0.428 | IC50 [2]: 1.46 mg/L | EC50 [3]: 1.35 mg/L | IC50 [4]: 3.48 mg/L | Values for blocking IL-2Rβ at an Octet level [5]: 0.003
B6: A3-21 full-length fully human anti-IL-2 antibody (antibody, human IgG1, lambda, L234A L235A, V domains shown)
VH: EVQLLESGGGLAQPGGSLRLSCAGSGFTFSSYAMSWVRQAPGKGLEWVSGITGTGYRTYYADSVKGRFTVSRDNSRNTVYLQMNSLRAEDTAVYYCVRESGHYYGWFDSWGQGTLVTVSS
VL: QSALTQPPSVSGAPGQRVTISCTGSSSNIGAGYNVHWYQQVPGTVPKLLIDGKGNRPSGVPDRFSGSKSGTSASLAITGLQAEDEADYYCQSYDYMLSGSVVFGRGTKLTVLG
notes: Human IgG1 with LALA mutation
